Kd data for three molecules are collected here from patent US20220411533A1 (Boehringer Ingelheim, published 2022).

The chains are these.
T1: human Trop2 recombinantly expressed on HEK293 cells (full-length, C-terminal Myc-DDK-tag) (human, UniProt P09758 27-323)
T1 construct: UniProt P09758 is printed for human TROP2; also called trophoblast cell-surface antigen 2; not shown: C-terminal Myc-DDK-tag of the Origene construct #RC202519
T1 sequence: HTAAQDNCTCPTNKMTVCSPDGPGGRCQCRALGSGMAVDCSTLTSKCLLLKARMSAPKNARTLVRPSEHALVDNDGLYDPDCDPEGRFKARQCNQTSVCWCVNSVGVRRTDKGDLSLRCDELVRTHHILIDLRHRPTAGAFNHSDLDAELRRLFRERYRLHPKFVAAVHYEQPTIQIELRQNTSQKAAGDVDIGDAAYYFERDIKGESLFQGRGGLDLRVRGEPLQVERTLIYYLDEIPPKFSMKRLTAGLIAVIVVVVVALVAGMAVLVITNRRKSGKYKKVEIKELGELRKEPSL

B1: Trop2#7 (antibody, V domains shown)
VH: EVQLQQSGPELVKPGASVKMSCRASGYTFTSYAMHWVKQKPGQGLEWIGYINPYNGGTKYNEKFKGRATLTSDKSSSTAYMELSSLTSEDSAVYYCAREGIYYGAWFAYWGQGTLVTVSA
VL: DIQMTQSSSSFSVSLGDRVTITCKASEDIYNRLAWFQQKPGNAPRLLISGATSLETGVPSRFRGSRSGKDYTLSITSLQTEDVATYYCQQYWSTWTFGGGTKLEIK
B2: Trop2#1 (antibody, V domains shown)
VH: EVQLQQSGPELLKPGASVKISCKASGYTFTDYTMHWVKQSHGKSLEWIGGIYPNYGDTNYNEKFKDKATLTVDESSSTAYMELRSLTSEDSAVYYCSRKTVLLRLRYFDVWGTGTTVTVSS
VL: DIQMTQSPASLSASVGETVTITCRASGNIHNYLAWYQQKQGKSPQLLVYNAITLADGVPSRFSGSGSGTQYSLKINSLQPEDFGSYYCQHFWSTPFTFGSGTKLEIK
B3: Trop2#5 (antibody, V domains shown)
VH: EVQLQQSGPDLVKPGASVKMSCKASGFIFTDYYMNWVKQSHGKSLEWIGYIYPNNGATAYNQKFKGKATLTVDKSSSTAYMELRSLTSEDSAVYYCARESDFYAMDYWGQGTSVTVSS
VL: DVVMTQTPLSLPVSLGDQASISCRSSQSLVHSHGNIYLHWYLQKPGLSPKLLIFKVSNRFSGVPDRFSGSGSGTDFTLKISRVEAEDLGVYFCSQSTHVWTFGGGTKLEIK

This assay deals with T1, human Trop2 recombinantly expressed on …. The assay can be described thus: flow cytometry based Scatchard method on HEK293 cells expressing Trop2.
Regarding B1, the dissociation constant Kd was found to be 400 pM. In the case of B2, the Kd turned out to be 2200 pM.

In the case of B3, the Kd was 600 pM.
